Biological target: KERP1 (lysine and glutamic acid rich protein 1), recombinant full-length protein (Entamoeba histolytica (strain HM1:IMSS))
Assay: AUC

KERP1 (lysine and glutamic acid rich protein 1), recombinant full-length protein (natural protein)
stoichiometry N: 3

— paper PMC3558696
